The source of these data is paper PMC4267655, “Brr2p carboxy-terminal Sec63 domain modulates Prp16 splicing RNA helicase” (Nucleic Acids Research, 2014).

Where a chain is given by its changes, count along the chain named. In names and notes the source's numbering stands.

One series has as its target T1, Ded1p (Saccharomyces cerevisiae, UniProt P06634).
T1 construct: gene DED1; recombinant from E. coli BL21 RIL, purified as previously described
The experiment in a line: ATPase assay, released Pi. Particulars: 5 nM enzyme, 1 mM ATP, 50 ng/μl total yeast RNA, 20 mM Tris-HCl pH 7.5, 50 mM KAc, 1 mM MgOAc, 30°C. It counts as biochemical.

A further series addresses T2, Prp22p (Saccharomyces cerevisiae, UniProt P24384).
T2 construct: gene PRP22; recombinant from E. coli BL21 RIL, purified as previously described
T2 sequence (P24384 1-1145): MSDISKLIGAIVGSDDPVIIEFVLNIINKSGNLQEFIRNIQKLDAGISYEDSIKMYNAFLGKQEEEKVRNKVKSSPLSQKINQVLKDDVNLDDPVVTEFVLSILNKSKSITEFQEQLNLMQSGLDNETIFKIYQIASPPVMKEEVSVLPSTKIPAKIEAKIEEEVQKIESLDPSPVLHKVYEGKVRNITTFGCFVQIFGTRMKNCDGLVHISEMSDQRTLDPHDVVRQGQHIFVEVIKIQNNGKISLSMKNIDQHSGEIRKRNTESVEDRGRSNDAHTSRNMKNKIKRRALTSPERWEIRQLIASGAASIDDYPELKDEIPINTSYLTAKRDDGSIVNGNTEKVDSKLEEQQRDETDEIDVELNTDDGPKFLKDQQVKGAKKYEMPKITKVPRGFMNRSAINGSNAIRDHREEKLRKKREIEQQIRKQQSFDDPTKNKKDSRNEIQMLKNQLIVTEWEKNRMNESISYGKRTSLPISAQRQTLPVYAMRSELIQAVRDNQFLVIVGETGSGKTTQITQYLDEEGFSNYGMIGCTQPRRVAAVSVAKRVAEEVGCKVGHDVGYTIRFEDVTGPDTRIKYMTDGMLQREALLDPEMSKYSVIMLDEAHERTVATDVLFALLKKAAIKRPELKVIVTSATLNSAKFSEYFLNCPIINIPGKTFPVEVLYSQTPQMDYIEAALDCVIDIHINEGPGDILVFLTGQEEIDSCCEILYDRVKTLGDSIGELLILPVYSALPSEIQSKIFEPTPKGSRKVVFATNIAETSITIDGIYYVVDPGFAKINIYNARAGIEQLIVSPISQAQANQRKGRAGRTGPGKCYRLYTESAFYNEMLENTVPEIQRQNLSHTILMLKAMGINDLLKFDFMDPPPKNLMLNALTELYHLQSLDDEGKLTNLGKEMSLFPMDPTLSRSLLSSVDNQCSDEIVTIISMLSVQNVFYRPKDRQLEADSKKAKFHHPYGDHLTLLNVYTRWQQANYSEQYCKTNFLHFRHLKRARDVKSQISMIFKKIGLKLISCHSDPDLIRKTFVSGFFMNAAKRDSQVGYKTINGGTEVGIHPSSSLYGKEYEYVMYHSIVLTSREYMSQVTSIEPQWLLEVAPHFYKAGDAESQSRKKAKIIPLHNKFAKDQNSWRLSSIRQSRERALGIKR
Briefly: ATPase assay, released Pi. It counts as biochemical. Particulars: 1 mM ATP, 50 ng/μl total yeast RNA, 20 mM Tris-HCl pH 7.5, 75 mM KCl, 1 mM MgSO4, 30°C.

Series [1] concerns the target T3, recombinant Prp16p (wild type) (budding yeast, UniProt P15938 1-1071).
T3 sequence (looked up): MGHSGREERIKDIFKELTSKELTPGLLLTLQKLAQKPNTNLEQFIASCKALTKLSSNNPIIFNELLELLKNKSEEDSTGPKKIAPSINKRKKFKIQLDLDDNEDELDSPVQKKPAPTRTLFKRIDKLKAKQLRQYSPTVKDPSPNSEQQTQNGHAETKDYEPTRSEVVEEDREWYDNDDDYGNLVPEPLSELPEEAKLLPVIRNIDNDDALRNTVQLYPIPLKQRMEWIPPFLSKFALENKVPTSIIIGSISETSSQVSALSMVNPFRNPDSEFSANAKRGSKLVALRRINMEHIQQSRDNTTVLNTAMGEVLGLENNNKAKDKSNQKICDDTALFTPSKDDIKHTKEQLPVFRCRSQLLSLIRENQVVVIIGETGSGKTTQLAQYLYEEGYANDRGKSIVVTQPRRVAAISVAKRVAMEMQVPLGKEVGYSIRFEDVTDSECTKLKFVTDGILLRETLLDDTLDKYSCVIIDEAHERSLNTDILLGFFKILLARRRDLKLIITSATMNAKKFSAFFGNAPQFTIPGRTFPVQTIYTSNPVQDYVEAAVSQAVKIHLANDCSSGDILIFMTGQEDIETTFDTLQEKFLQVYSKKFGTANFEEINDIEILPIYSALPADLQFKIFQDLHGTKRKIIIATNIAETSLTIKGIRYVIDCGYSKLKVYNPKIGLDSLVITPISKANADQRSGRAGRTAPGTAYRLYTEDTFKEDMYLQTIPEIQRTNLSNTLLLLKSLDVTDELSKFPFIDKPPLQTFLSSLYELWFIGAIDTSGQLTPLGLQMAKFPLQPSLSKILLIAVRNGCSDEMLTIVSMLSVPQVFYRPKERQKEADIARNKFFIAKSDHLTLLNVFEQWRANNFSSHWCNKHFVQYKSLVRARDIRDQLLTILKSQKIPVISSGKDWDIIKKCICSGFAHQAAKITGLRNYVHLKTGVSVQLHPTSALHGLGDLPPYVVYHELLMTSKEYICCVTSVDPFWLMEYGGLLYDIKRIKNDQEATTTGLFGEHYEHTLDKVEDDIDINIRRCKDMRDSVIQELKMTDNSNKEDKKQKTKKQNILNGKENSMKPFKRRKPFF
Briefly: cell-based or functional assay.

The target of series [2] is T3, recombinant Prp16p (wild type). The experiment in a line: native gel or EMSA; apparent; Prp16p (300 nM) with 2-nM 32P-labelled 44-nt ssRNA and increasing amounts of Sec63-2p or Sec63-2 R1899Gp; loss of the Prp16p-RNA complex; buffer of the Prp16p ATPase assay without ATP. Particulars: both partners purified. A general note: A gel shift assay detects complexes by their altered migration in electrophoresis.

Series [3] deals with Brr2 H2-Sec63-2p R1899G, Gal4AD-prey fusion, P32639. The experiment in a line: Y2H interaction assay. Particulars: chain shown with the change; growth on -LWH medium with 3-AT; parent: 50.0.
Series [4] has as its target Brr2 H2-Sec63-2p L1951P, Gal4AD-prey fusion, P32639. Briefly: Y2H interaction assay. Particulars: chain shown with the change; growth on -LWH medium with 3-AT; parent: 50.0.
Substrate in series [5]: Nc1ncnc2c1ncn2[C@@H]1O[C@H](COP(=O)(O)OP(=O)(O)OP(=O)(O)O)[C@@H](O)[C@H]1O
Briefly: ATPase assay, released Pi. It counts as biochemical, Saccharomyces cerevisiae. Particulars: 10 nM enzyme, 50 ng/μl total yeast RNA, no Sec63-2p, 20 mM Tris-HCl pH 7.5, 75 mM KCl, 1 mM MgSO4, 30°C. An excerpt:
ATPase assay, released Pi on Prp16p

In a further series the target is T4, Prp16p (UniProt P15938 1-1071).
T4 sequence: T3 sequence (looked up)
The experiment in a line: EMSA; no ATP; 2 nM RNA; EMSA in the Prp16p ATPase assay buffer without ATP (composition, pH and temperature not in the material), 2 nM 5' 32P-labeled RNA. Particulars: protein: recombinant; tags: His (pET22b-PRP16-His); label: 5' 32P; single stranded.

Brr2 H2-Sec63-2p L1951P, Gal4AD-prey fusion, P32639, sequence (P32639 whole entry L1951P, the tested form may be a part): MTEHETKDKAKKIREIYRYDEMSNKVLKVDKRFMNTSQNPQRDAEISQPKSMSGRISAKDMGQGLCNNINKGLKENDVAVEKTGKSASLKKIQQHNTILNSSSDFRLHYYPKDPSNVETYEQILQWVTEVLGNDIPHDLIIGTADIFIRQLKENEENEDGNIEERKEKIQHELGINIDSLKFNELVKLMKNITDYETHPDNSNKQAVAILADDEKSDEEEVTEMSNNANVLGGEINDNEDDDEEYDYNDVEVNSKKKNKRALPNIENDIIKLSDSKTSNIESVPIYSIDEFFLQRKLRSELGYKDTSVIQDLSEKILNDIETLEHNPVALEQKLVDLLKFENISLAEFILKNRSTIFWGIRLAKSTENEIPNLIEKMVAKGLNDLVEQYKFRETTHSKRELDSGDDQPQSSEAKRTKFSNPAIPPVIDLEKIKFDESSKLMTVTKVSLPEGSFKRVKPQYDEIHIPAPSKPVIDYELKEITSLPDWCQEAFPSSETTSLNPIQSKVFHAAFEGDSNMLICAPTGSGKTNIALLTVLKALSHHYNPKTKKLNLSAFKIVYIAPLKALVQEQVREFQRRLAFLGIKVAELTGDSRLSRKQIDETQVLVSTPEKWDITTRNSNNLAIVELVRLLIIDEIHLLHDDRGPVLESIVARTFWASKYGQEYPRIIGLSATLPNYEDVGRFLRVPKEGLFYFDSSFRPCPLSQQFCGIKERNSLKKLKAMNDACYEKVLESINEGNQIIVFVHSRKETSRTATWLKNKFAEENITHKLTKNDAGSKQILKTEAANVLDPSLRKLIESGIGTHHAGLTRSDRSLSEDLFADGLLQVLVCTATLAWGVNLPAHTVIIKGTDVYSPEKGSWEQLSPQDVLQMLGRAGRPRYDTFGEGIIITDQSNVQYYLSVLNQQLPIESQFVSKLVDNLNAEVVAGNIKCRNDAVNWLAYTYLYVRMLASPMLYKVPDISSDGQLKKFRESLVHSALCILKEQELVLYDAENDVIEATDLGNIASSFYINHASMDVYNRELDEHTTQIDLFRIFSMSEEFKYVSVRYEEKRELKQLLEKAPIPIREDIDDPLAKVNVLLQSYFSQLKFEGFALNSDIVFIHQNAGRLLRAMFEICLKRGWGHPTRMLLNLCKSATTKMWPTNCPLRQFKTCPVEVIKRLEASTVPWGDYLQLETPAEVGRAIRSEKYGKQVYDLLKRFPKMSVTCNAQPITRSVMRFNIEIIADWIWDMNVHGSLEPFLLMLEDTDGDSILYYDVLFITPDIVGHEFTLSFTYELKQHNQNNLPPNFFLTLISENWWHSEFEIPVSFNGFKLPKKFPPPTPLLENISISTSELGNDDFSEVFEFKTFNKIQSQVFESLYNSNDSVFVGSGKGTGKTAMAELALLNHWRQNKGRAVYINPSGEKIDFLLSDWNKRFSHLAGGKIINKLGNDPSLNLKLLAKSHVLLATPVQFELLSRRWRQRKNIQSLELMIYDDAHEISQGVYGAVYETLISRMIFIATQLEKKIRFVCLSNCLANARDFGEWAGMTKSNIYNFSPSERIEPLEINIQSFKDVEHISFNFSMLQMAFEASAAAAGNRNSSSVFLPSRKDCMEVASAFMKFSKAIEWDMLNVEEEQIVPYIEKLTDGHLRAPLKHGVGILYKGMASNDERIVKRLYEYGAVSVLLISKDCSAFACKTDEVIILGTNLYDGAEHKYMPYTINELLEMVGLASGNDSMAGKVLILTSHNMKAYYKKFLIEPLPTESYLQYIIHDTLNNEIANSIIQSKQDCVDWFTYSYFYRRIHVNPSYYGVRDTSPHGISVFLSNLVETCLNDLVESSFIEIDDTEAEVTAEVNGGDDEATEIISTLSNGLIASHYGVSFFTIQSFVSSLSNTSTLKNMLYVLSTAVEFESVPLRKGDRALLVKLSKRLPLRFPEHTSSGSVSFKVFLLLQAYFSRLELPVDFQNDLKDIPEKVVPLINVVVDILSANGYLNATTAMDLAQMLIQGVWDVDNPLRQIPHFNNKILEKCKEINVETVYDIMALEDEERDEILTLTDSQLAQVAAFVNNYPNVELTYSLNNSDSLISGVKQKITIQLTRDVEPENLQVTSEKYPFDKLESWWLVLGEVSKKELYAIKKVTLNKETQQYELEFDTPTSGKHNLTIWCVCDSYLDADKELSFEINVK
Brr2 H2-Sec63-2p R1899G, Gal4AD-prey fusion, P32639, sequence (P32639 whole entry R1899G, the tested form may be a part): as the sequence (P32639 whole entry L1951P, the tested form may be a part) above, with R1899G, P1951L counted along it
T1 sequence (P06634 2-604): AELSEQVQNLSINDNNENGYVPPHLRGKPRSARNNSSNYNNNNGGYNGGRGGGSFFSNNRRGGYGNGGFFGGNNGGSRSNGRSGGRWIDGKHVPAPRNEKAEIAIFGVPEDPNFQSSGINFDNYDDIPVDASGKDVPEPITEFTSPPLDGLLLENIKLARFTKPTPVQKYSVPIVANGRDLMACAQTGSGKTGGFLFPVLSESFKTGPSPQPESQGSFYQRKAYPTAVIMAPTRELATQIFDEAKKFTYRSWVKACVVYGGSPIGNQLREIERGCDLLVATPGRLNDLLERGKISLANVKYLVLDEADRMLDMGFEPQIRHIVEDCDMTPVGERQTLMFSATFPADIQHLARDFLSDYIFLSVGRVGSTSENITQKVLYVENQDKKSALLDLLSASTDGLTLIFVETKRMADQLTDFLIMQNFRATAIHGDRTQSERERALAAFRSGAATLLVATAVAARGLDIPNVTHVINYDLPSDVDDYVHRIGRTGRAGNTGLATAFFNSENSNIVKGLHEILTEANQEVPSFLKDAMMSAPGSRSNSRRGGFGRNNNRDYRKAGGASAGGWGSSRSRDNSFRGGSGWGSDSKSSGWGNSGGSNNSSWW

On to `Nc1ncnc2c1ncn2[C@@H]1O[C@H](COP(=O)(O)OP(=O)(O)OP(=O)(O)O)[C@@H](O)[C@H]1O` [ATP], for which the “ATPase assay, released Pi” value at Ded1p and on Prp22p was “no effect of Sec63-2p on the ATPase activities of Ded1p” throughout.

B1: recombinant Brr2 Sec63-2p (domain or fragment, budding yeast, UniProt P32639 1846-2160, looked up)
chain: TLSNGLIASHYGVSFFTIQSFVSSLSNTSTLKNMLYVLSTAVEFESVPLRKGDRALLVKLSKRLPLRFPEHTSSGSVSFKVFLLLQAYFSRLELPVDFQNDLKDILEKVVPLINVVVDILSANGYLNATTAMDLAQMLIQGVWDVDNPLRQIPHFNNKILEKCKEINVETVYDIMALEDEERDEILTLTDSQLAQVAAFVNNYPNVELTYSLNNSDSLISGVKQKITIQLTRDVEPENLQVTSEKYPFDKLESWWLVLGEVSKKELYAIKKVTLNKETQQYELEFDTPTSGKHNLTIWCVCDSYLDADKELSFEI
notes: Brr2p, budding yeast, carboxy-terminal Sec63-2 domain; detected with anti-His-HRP antibodies; also called WT Sec63-2p; Brr2 Sec63-2p domain; source: E. coli BL21 RIL, purified (Hi-Trap IMAC HP charged with Ni)
As for B1, the “ATPase activity of Prp16p (10 nM) in vitro with increasing molar excess of Sec63-2p, in presence of 50-ng/μl total yeast RNA” value in series [1] turned out to be 2 fold. In addition, the “Kd (dissociation constant)” value in series [2] worked out at 0.479 ± 0.002 µM.

B2: recombinant Brr2 Sec63-2 R1899Gp (domain or fragment, budding yeast, UniProt P32639 1846-2160, looked up)
chain: B1 chain with R54G
notes: Brr2p, budding yeast, carboxy-terminal Sec63-2 domain; also called Sec63-2 R1899G mutant protein; Brr2-R1899G mutant protein; source: E. coli BL21 RIL, purified (Hi-Trap IMAC HP charged with Ni)
As for B2, the “Kd (dissociation constant)” value in series [2] was determined as 3.097 ± 0.003 µM.

B3: m21; m1 Prp16p:R456K; Prp16p:G691R; Brr2 H2-Sec63-2:R1899G (protein)
chain: T3 sequence (looked up) with R456K, G691R
As to B3, the other: maximal [3AT] tolerated in series [3] was found to be 0 mM.

B4: m21; m1 Prp16p:Q685H; Brr2 H2-Sec63-2:L1951P (protein)
chain: T3 sequence (looked up) with Q685H
On to B4, for which the other: maximal [3AT] tolerated in series [4] was 0 µM.

B5: m21; m1 Prp16p:R686Q; Brr2 H2-Sec63-2:L1951P (protein)
chain: T3 sequence (looked up) with R686Q
Turning to B5, the other: maximal [3AT] tolerated in series [4] is 200 µM.

B6: Prp16p (Saccharomyces cerevisiae S288C) (protein)
chain: T3 sequence (looked up)
notes: recombinant from E. coli BL21 RIL, NiNTA purified (His-tagged)
The term Km denotes the concentration of substrate that gives half-maximal velocity. Broadly, the kcat is the maximal rate divided by the concentration of active sites. Turning to B6, in series [5], the Michaelis constant (Km) was 751 ± 181 µM and the kcat stood at 3.05 ± 0.683 s⁻¹.

B7: m21; m1 Prp16p:R686I; Brr2 H2-Sec63-2:R1899G (protein)
chain: T3 sequence (looked up) with R686I
Turning to B7, the other: maximal [3AT] tolerated in series [3] is 75 mM.

B8: m21; m1 Prp16p:R686Q; Brr2 H2-Sec63-2:R1899G (protein)
chain: T3 sequence (looked up) with R686Q
On to B8, for which the other: maximal [3AT] tolerated in series [3] came out at 50 mM.

B9: m21; m1 Prp16p:D473E; Brr2 H2-Sec63-2:R1899G (protein)
chain: T3 sequence (looked up) with D473E
Consider B9, for which the other: maximal [3AT] tolerated in series [3] turned out to be 10 mM.

B10: m21; m1 Prp16p:Q685H; Brr2 H2-Sec63-2:R1899G (protein)
chain: T3 sequence (looked up) with Q685H
With B10, in series [3], the other: maximal [3AT] tolerated amounted to 100 mM.

B11: m21; m1 Prp16p:D473E; Brr2 H2-Sec63-2:L1951P (protein)
chain: T3 sequence (looked up) with D473E
With B11, in series [4], the other: maximal [3AT] tolerated was determined as 0 µM.

B12: m21; m1 Prp16p:R456K; Prp16p:G691R; Brr2 H2-Sec63-2:L1951P (protein)
chain: T3 sequence (looked up) with R456K, G691R
With B12, in series [4], the other: maximal [3AT] tolerated is 0 µM.

B13: m21; m1 Prp16p:R686I; Brr2 H2-Sec63-2:L1951P (protein)
chain: T3 sequence (looked up) with R686I
Consider B13, for which the other: maximal [3AT] tolerated in series [4] worked out at 200 µM. Regarding GGGCGAAUUCAAAACAAAACAAAACUAGCACCGUAAAGCAAGCU (ssRNA) [44-nt ssRNA], in the series with Prp16p, the binding result is reported as “binds”.
